Measurements taken from the supplement of paper PMC9112550, “Optimization of the antimicrobial peptide Bac7 by deep mutational scanning” (BMC Biology, 2022).

Test system: Escherichia coli TOP10
Assay: shrunken log2 fold change of peptide-encoding DNA abundance (4.5 h post-induction vs induction); higher = less antimicrobial activity (less host growth inhibition)
Conditions: time post-induction: 4.5 h; library: site-saturation at positions 5, 18, 19, 20
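Further: peptides expressed intracellularly from a pBAD plasmid library in pooled LB shake-flask culture, induced with 0.3% L-arabinose, DNA abundance read by NGS, three biological replicates, DESeq2 with apeglm shrinkage.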

Row | Sequence | shrunken log2 fold change
1 | RRIRMRPPRLPRPRPRPVVKPRP | 0.189
2 | RRIRARPPRLPRPRPRPMDHPRP | 0.267
3 | RRIRYRPPRLPRPRPRPNHIPRP | -1.27
4 | RRIRRRPPRLPRPRPRPHLWPRP | 0.25
5 | RRIRLRPPRLPRPRPRPANAPRP | 0.0811
6 | RRIRGRPPRLPRPRPRPHWSPRP | -0.132
7 | RRIRRRPPRLPRPRPRPILYPRP | 0.143
8 | RRIRPRPPRLPRPRPRPRQEPRP | 3.83
9 | RRIRKRPPRLPRPRPRPDWWPRP | -0.0103
10 | RRIRLRPPRLPRPRPRPEGLPRP | 0.206
11 | RRIRTRPPRLPRPRPRPLCDPRP | -0.714
12 | RRIRGRPPRLPRPRPRPRANPRP | 0.816
13 | RRIRTRPPRLPRPRPRPTHNPRP | 0.0318
14 | RRIRPRPPRLPRPRPRPIFFPRP | 0.211
15 | RRIRQRPPRLPRPRPRPKEFPRP | 0.0639
16 | RRIRTRPPRLPRPRPRPYGQPRP | -0.107
17 | RRIRDRPPRLPRPRPRPSIKPRP | -0.491
18 | RRIRTRPPRLPRPRPRPPALPRP | 0.311
19 | RRIRARPPRLPRPRPRPTLEPRP | 0.388
20 | RRIRIRPPRLPRPRPRPTHMPRP | 0.578

Row | Sequence | shrunken log2 fold change
21 | RRIRKRPPRLPRPRPRPFALPRP | 0.186
22 | RRIRLRPPRLPRPRPRPLNQPRP | -0.917
23 | RRIRDRPPRLPRPRPRPSEQPRP | 0.0598
24 | RRIRDRPPRLPRPRPRPPAEPRP | 0.525
25 | RRIRYRPPRLPRPRPRPVNIPRP | -0.617
26 | RRIRNRPPRLPRPRPRPKPIPRP | 0.202
27 | RRIRGRPPRLPRPRPRPDQCPRP | 0.196
28 | RRIRRRPPRLPRPRPRPDQIPRP | -0.122
29 | RRIRHRPPRLPRPRPRPELLPRP | 0.06
30 | RRIRCRPPRLPRPRPRPCYCPRP | -0.399
31 | RRIRYRPPRLPRPRPRPQCCPRP | -0.18
32 | RRIRLRPPRLPRPRPRPNAQPRP | -0.0471
33 | RRIRVRPPRLPRPRPRPSTAPRP | -0.0759
34 | RRIRTRPPRLPRPRPRPEQDPRP | 0.0235
35 | RRIRSRPPRLPRPRPRPYHNPRP | -1.22
36 | RRIRFRPPRLPRPRPRPVIPPRP | -0.102
37 | RRIRVRPPRLPRPRPRPIWVPRP | 0.154
38 | RRIRTRPPRLPRPRPRPMQCPRP | -0.00968
39 | RRIRVRPPRLPRPRPRPVGAPRP | 0.329
40 | RRIRPRPPRLPRPRPRPGPAPRP | 0.51

Row | Sequence | shrunken log2 fold change
41 | RRIRKRPPRLPRPRPRPPFEPRP | 0.143
42 | RRIRKRPPRLPRPRPRPCYWPRP | 0.0448
43 | RRIRCRPPRLPRPRPRPYKQPRP | -0.211
44 | RRIRQRPPRLPRPRPRPKHGPRP | 0.00489
45 | RRIRYRPPRLPRPRPRPYLTPRP | -0.305
46 | RRIRPRPPRLPRPRPRPQDYPRP | -0.0245
47 | RRIRMRPPRLPRPRPRPYLKPRP | -0.00107
48 | RRIRARPPRLPRPRPRPFFSPRP | -0.0124
49 | RRIRCRPPRLPRPRPRPDYAPRP | -0.278
50 | RRIRCRPPRLPRPRPRPLPCPRP | 0.0339
51 | RRIRCRPPRLPRPRPRPFQNPRP | -0.0078
52 | RRIRKRPPRLPRPRPRPWFHPRP | -0.838
53 | RRIRRRPPRLPRPRPRPKAAPRP | 0.596
54 | RRIRYRPPRLPRPRPRPQHVPRP | -1.14
55 | RRIRSRPPRLPRPRPRPMRMPRP | 0.323
56 | RRIRYRPPRLPRPRPRPDSIPRP | -0.0267
57 | RRIRERPPRLPRPRPRPKGVPRP | 0.723
58 | RRIRVRPPRLPRPRPRPEMYPRP | -0.19
59 | RRIRARPPRLPRPRPRPPIPPRP | 0.319
60 | RRIRNRPPRLPRPRPRPMRKPRP | 0.481
